{
  "source": "patent US20250136687A1",
  "key": {"[1]": {"molecular_target": "human CD3 on the cell surface (Jurkat cells, expanded human T cells, Jurkat-Lucia NFAT cells, human PBMC) (human) (UniProt P07766)", "sequence (P07766 23-207, chain 1 of 3)": "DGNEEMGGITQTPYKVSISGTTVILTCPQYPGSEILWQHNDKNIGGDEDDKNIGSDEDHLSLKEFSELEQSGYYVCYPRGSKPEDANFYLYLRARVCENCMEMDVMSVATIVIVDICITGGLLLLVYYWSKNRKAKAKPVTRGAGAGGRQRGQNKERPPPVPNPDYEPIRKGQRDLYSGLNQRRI", "sequence (P04234 22-171, chain 2 of 3, further chain)": "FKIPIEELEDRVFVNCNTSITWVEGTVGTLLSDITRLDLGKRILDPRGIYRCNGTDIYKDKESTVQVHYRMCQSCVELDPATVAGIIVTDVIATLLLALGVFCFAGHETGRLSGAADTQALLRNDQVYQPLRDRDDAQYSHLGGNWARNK", "sequence (P09693 23-182, chain 3 of 3, further chain)": "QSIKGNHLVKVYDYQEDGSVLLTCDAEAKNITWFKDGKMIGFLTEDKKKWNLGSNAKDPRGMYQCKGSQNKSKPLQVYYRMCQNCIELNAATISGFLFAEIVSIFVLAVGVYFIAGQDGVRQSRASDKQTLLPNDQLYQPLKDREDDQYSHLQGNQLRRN", "assay": "FACS, Jurkat cells"}, "[2]": {"molecular_target": "human CD3 on the cell surface (Jurkat cells, expanded human T cells, Jurkat-Lucia NFAT cells, human PBMC) (human) (UniProt P07766)", "assay": "FACS, Jurkat cells", "remark": "listed apart in the source"}, "[3]": {"molecular_target": "human CD3 on the cell surface (Jurkat cells, expanded human T cells, Jurkat-Lucia NFAT cells, human PBMC) (human) (UniProt P07766)", "assay": "FACS, Jurkat cells", "remark": "listed apart in the source"}, "[4]": {"molecular_target": "human CD3ε/δ-His (human) (UniProt P07766)", "sequence (P07766 23-126, stated change not applied, form in doubt, chain 1 of 2)": "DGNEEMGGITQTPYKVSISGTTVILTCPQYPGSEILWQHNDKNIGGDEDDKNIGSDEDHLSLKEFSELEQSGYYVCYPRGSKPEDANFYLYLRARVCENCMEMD", "sequence (P04234 22-105, stated change not applied, form in doubt, chain 2 of 2, further chain)": "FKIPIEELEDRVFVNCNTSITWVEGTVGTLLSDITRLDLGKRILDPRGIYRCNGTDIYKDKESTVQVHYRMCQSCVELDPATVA", "assay": "ELISA, coated antigen"}, "[5]": {"molecular_target": "monkey CD3ε protein (monkey) (UniProt Q95LI5)", "sequence (Q95LI5 22-117 limits assumed)": "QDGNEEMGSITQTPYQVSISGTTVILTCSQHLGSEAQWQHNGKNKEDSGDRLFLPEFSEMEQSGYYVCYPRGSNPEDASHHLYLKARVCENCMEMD", "assay": "ELISA, coated antigen"}, "[6]": {"molecular_target": "monkey CD3ε/δ-His (monkey) (UniProt Q95LI5)", "sequence (Q95LI5 22-117, stated change not applied, form in doubt, chain 1 of 2)": "as the sequence (Q95LI5 22-117 limits assumed) above", "sequence (Q95LI8 22-105, stated change not applied, form in doubt, chain 2 of 2, further chain)": "as the sequence (P04234 22-105, stated change not applied, form in doubt, chain 2 of 2, further chain) above, with I5V, N15K, I20V, S32T, D33N, I34N, T64A, S74N, V83L counted along it", "assay": "ELISA, coated antigen"}, "[7]": {"molecular_target": "recombinant human CD3ε-ECD His protein (human) (UniProt P07766)", "sequence (P07766 23-126)": "as the sequence (P07766 23-126, stated change not applied, form in doubt, chain 1 of 2) above", "assay": "ELISA, coated antigen"}, "[8]": {"molecular_target": "recombinant human CD3ε-ECD His protein (human) (UniProt P07766)", "assay": "ELISA, coated antigen", "remark": "listed apart in the source"}, "[9]": {"molecular_target": "human CD3 on the cell surface (Jurkat cells, expanded human T cells, Jurkat-Lucia NFAT cells, human PBMC) (human) (UniProt P07766)", "assay": "cell-based or functional assay"}, "[10]": {"molecular_target": "human CD3 on the cell surface (Jurkat cells, expanded human T cells, Jurkat-Lucia NFAT cells, human PBMC) (human) (UniProt P07766)", "assay": "cell-based or functional assay", "remark": "listed apart in the source"}, "[11]": {"molecular_target": "human CD3 on the cell surface (Jurkat cells, expanded human T cells, Jurkat-Lucia NFAT cells, human PBMC) (human) (UniProt P07766)", "assay": "cell-based or functional assay", "remark": "listed apart in the source"}, "[12]": {"molecular_target": "human CD3 on the cell surface (Jurkat cells, expanded human T cells, Jurkat-Lucia NFAT cells, human PBMC) (human) (UniProt P07766)", "assay": "cell-based or functional assay", "remark": "listed apart in the source"}, "[13]": {"molecular_target": "human CD3 on the cell surface (Jurkat cells, expanded human T cells, Jurkat-Lucia NFAT cells, human PBMC) (human) (UniProt P07766)", "assay": "FACS, expanded human T cells"}, "[14]": {"molecular_target": "human CD3 on the cell surface (Jurkat cells, expanded human T cells, Jurkat-Lucia NFAT cells, human PBMC) (human) (UniProt P07766)", "assay": "FACS, expanded human T cells", "remark": "listed apart in the source"}, "[15]": {"molecular_target": "human CD3 on the cell surface (Jurkat cells, expanded human T cells, Jurkat-Lucia NFAT cells, human PBMC) (human) (UniProt P07766)", "assay": "FACS, expanded human T cells", "remark": "listed apart in the source"}, "[16]": {"molecular_target": "human CD3 on the cell surface (Jurkat cells, expanded human T cells, Jurkat-Lucia NFAT cells, human PBMC) (human) (UniProt P07766)", "assay": "FACS, expanded human T cells", "remark": "listed apart in the source"}, "[17]": {"molecular_target": "cynomolgus monkey CD3 on the surface of expanded monkey T cells (cynomolgus monkey) (UniProt Q95LI5)", "sequence (Q95LI5 22-198, chain 1 of 3)": "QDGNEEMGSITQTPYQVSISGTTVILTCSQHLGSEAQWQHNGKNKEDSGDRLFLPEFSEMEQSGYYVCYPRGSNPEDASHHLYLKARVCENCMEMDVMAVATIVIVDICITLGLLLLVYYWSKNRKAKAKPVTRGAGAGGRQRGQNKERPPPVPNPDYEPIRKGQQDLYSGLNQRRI", "sequence (Q95LI8 22-171, chain 2 of 3, further chain)": "as the sequence (P04234 22-171, chain 2 of 3, further chain) above, with I5V, N15K, I20V, S32T, D33N, I34N, T64A, S74N, V83L, H141R counted along it", "sequence (Q95LI7 23-181, chain 3 of 3, further chain)": "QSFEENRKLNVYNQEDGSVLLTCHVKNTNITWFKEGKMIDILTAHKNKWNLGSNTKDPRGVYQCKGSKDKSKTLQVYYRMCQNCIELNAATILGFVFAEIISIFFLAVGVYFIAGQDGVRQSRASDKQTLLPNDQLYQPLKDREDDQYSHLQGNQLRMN", "assay": "FACS, expanded monkey T cells"}, "[18]": {"molecular_target": "cynomolgus monkey CD3 on the surface of expanded monkey T cells (cynomolgus monkey) (UniProt Q95LI5)", "assay": "FACS, expanded monkey T cells", "remark": "listed apart in the source"}, "[19]": {"molecular_target": "cynomolgus monkey CD3 on the surface of expanded monkey T cells (cynomolgus monkey) (UniProt Q95LI5)", "assay": "FACS, expanded monkey T cells", "remark": "listed apart in the source"}, "[20]": {"molecular_target": "cynomolgus monkey CD3 on the surface of expanded monkey T cells (cynomolgus monkey) (UniProt Q95LI5)", "assay": "FACS, expanded monkey T cells, 4 nM antibody"}, "[21]": {"molecular_target": "cynomolgus monkey CD3 on the surface of expanded monkey T cells (cynomolgus monkey) (UniProt Q95LI5)", "assay": "FACS, expanded monkey T cells, 20 nM antibody"}, "[22]": {"molecular_target": "cynomolgus monkey CD3 on the surface of expanded monkey T cells (cynomolgus monkey) (UniProt Q95LI5)", "assay": "FACS, expanded monkey T cells, 100 nM antibody"}, "[23]": {"molecular_target": "human CD3ε/δ-His (human) (UniProt P07766)", "assay": "ELISA, coated antigen, hybridoma screening"}, "[24]": {"molecular_target": "monkey CD3ε/δ-His (monkey) (UniProt Q95LI5)", "assay": "ELISA, coated antigen, hybridoma screening"}},
  "note": "Values joined by “and” are separate entries in the source; they are usually repeats but may differ in a detail not shown here. Equal values may be shown once. Read-outs that look alike come from different tables or passages of the source.",
  "data": [
    {"substance": "anti-hel-hIgG1 (negative control antibody against Hen Egg Lysozyme)", "values": [
      {"measurement": "MFI Max", "setting": "[1]", "value": 151, "unit": "MFI"},
      {"measurement": "MFI Max", "setting": "[2]", "value": 490, "unit": "MFI"},
      {"measurement": "Maximum fluorescence value Alexa 647", "setting": "[2]", "value": 108, "unit": "MFI"},
      {"measurement": "MFI Max", "setting": "[3]", "value": 182, "unit": "MFI"},
      {"measurement": "max-OD450", "setting": "[4]", "value": 0.09, "unit": "OD450"},
      {"measurement": "max-OD450", "setting": "[5]", "value": 0.16, "unit": "OD450"},
      {"measurement": "max-OD450", "setting": "[6]", "value": 0.15, "unit": "OD450"},
      {"measurement": "max-OD450", "setting": "[7]", "value": 0.11, "unit": "OD450"},
      {"measurement": "max-OD450", "setting": "[8]", "value": 0.09, "unit": "OD450"},
      {"measurement": "Maximum response value (RLU)", "setting": "[9]", "value": 1830, "unit": "RLU"},
      {"measurement": "Maximum response value (RLU)", "setting": "[10]", "value": 2330, "unit": "RLU"},
      {"measurement": "Maximum response value (RLU)", "setting": "[11]", "value": 4250, "unit": "RLU"},
      {"measurement": "Maximum response value (RLU)", "setting": "[12]", "value": 3780, "unit": "RLU"},
      {"measurement": "EC50", "setting": "[13]", "value": 19.9, "unit": "nM"},
      {"measurement": "MFI Max", "setting": "[13]", "value": 823, "unit": "MFI"},
      {"measurement": "Maximum fluorescence value Alexa 647", "setting": "[13]", "value": 480, "unit": "MFI"},
      {"measurement": "max MFI", "setting": "[13]", "value": 2250, "unit": "MFI"},
      {"measurement": "MFI Max", "setting": "[14]", "value": 148, "unit": "MFI"},
      {"measurement": "MFI Max", "setting": "[15]", "value": 195, "unit": "MFI"},
      {"measurement": "MFI Max", "setting": "[16]", "value": 124, "unit": "MFI"},
      {"measurement": "MFI Max", "setting": "[17]", "value": 87, "unit": "MFI"},
      {"measurement": "Maximum fluorescence value Alexa 647", "setting": "[17]", "value": 299, "unit": "MFI"},
      {"measurement": "max MFI", "setting": "[17]", "value": 74, "unit": "MFI"},
      {"measurement": "MFI Max", "setting": "[18]", "value": 1570, "unit": "MFI"},
      {"measurement": "MFI Max", "setting": "[19]", "value": 195, "unit": "MFI"},
      {"measurement": "MFI at antibody concentration 4 nM", "setting": "[20]", "value": 64, "unit": "MFI"},
      {"measurement": "MFI at antibody concentration 20 nM", "setting": "[21]", "value": 80, "unit": "MFI"},
      {"measurement": "MFI at antibody concentration 100 nM", "setting": "[22]", "value": 170, "unit": "MFI"}
    ]},
    {"substance": "anti-hel-mIgG1 (negative control antibody against Hen Egg Lysozyme)", "values": [
      {"measurement": "OD450", "setting": "[23]", "value": "0.05 OD450 and 0.04 OD450"},
      {"measurement": "OD450", "setting": "[24]", "value": "0.07 OD450 and 0.04 OD450 and 0.05 OD450"}
    ]}
  ]
}
